Among the data in PMC2877719 are mean FRET efficiency and FRET efficiency values, retold here.

Experiment [1] concerns the target C-terminus of hEAG1 (M478-S962) labeled with Cerulean (human) (UniProt O95259). Description: FRET or BRET; acceptor photobleaching FRET in co-transfected HEK-293 cells; Cerulean on hEAG1 (donor), YFP on CaM (acceptor); 1 uM ionomycin in Ringer solution with 1.8 mM CaCl2 (+Ca2+), 10 min at 37 C, then fixed with 4% formaldehyde. On the technique in general: BRET reads energy transfer from a luciferase to a nearby fluorophore.

For experiment [2], the target named is full-length hEAG1 labeled with Cerulean (human) (UniProt O95259). The description is as above.
Chain of full-length hEAG1 labeled with Cerulean (human) (O95259 other isoform, or with tags, fused parts or gaps): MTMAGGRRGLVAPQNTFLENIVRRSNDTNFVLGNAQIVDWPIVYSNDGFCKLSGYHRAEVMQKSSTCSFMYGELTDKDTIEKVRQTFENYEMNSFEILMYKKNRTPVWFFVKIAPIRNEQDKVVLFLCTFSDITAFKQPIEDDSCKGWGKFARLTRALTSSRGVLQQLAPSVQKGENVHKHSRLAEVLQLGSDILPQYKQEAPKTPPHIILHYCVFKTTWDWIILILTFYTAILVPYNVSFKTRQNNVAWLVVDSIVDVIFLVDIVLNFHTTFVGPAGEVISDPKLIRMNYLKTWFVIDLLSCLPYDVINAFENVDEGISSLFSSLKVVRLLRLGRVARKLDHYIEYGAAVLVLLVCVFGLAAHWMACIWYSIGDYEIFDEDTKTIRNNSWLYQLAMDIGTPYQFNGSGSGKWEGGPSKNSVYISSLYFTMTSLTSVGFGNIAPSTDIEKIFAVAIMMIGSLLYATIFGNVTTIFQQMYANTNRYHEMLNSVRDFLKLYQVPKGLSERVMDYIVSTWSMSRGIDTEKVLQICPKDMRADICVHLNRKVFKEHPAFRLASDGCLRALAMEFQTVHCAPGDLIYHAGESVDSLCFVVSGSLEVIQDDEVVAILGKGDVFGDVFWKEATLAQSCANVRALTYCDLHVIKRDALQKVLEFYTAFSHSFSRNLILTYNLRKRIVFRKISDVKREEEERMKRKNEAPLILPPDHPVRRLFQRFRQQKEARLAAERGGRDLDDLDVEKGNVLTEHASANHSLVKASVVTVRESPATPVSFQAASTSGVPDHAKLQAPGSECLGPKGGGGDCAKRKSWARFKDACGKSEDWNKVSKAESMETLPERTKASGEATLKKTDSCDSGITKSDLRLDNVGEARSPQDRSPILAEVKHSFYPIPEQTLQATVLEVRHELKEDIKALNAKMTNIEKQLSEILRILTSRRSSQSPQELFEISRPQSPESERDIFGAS
For experiment [3], the target named is full-length hEAG1 mutated in BD-N (F151S, A152S) labeled with Cerulean (human) (UniProt O95259). The experiment is described as above.
Chain of full-length hEAG1 mutated in BD-N (F151S, A152S) labeled with Cerulean (human) (O95259 other isoform, or with tags, fused parts or gaps F151S | A152S | F151S A152S): as the sequence (O95259 other isoform, or with tags, fused parts or gaps) above, with F151S, A152S counted along it
Experiment [4] addresses full-length hEAG1 with mutated BD-C2 (F714S, F717S) labeled with Cerulean (human) (UniProt O95259). The experiment is described as above.
The target in experiment [5] is full-length hEAG1 labeled with Cerulean (human) (UniProt O95259). Description: FRET or BRET; acceptor photobleaching FRET in co-transfected HEK-293 cells; Cerulean on hEAG1 (donor), YFP on CaM (acceptor); 1 uM ionomycin in Ca2+- and Mg2+-free Ringer solution with 1 mM EGTA (-Ca2+), 10 min at 37 C, then fixed with 4% formaldehyde.
The target in experiment [6] is full-length hEAG1 with mutated BD-C2 (F714S, F717S) labeled with Cerulean (human) (UniProt O95259). The description is as above.
Chain of full-length hEAG1 with mutated BD-C2 (F714S, F717S) labeled with Cerulean (human) (O95259 other isoform, or with tags, fused parts or gaps F714S | F717S | F714S F717S): as the sequence (O95259 other isoform, or with tags, fused parts or gaps) above, with F714S, F717S counted along it

Chain of C-terminus of hEAG1 (M478-S962) labeled with Cerulean (human) (O95259 505-989): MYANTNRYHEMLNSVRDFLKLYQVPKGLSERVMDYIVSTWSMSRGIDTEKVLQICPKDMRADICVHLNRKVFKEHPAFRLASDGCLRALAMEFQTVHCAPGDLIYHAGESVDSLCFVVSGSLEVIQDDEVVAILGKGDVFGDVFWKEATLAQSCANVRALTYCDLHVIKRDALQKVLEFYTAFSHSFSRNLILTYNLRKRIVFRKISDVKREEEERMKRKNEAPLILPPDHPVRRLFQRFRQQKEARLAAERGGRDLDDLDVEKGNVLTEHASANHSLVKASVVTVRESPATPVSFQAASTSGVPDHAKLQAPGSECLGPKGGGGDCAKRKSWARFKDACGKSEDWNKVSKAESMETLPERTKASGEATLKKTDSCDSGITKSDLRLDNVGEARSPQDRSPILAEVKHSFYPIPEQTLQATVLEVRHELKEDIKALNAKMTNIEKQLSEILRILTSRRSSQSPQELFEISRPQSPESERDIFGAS

In experiment [1], “N-terminally YFP-labeled calmodulin (rat calmodulin II) (from UniProt P0DP30 1-149) (natural protein)” came in with a mean FRET efficiency of 9.5%. Besides, the FRET efficiency came to 17% in experiment [2]; 9.8% in experiment [3]; 8.7% in experiment [4]; 10.1% in experiment [5]; 11.5% in experiment [6].
